Experiments:
[1] = target: T1, Tet(X7) (human gut metagenome, UniProt Z9HWK3IZF4); assay type: binding; settings: FAD in IN-conformation
[2] = target: T1, Tet(X7); assay: absorbance, initial velocity of tigecycline degradation; assay type: biochemical; settings: read-out: IC50 (apparent)
[3] = system: CN(C)c1cc(CNCC(C)(C)C)c(O)c2c1C[C@H]1C[C@H]3[C@H](N(C)C)C(=O)C(C(N)=O)=C(O)[C@@]3(O)C(=O)C1=C2O; assay: purified protein; settings: 0-40 µM substrate, 504 µM NADPH, 5.04 mM MgCl2, 0.4 µM enzyme, 100 mM TAPS pH 8.5, room temperature
[4] = system: CN(C)[C@@H]1C(=O)C(C(N)=O)=C(O)[C@@]2(O)C(=O)C3=C(O)c4c(O)c(NC(=O)CN5CCCC5)cc(F)c4C[C@H]3C[C@@H]12; assay: purified protein; settings: 0-40 µM substrate, 504 µM NADPH, 5.04 mM MgCl2, 0.4 µM enzyme, 100 mM TAPS pH 8.5, room temperature
[5] = system: CN(C)c1cc(NC(=O)CNC(C)(C)C)c(O)c2c1C[C@H]1C[C@H]3[C@H](N(C)C)C(=O)C(C(N)=O)=C(O)[C@@]3(O)C(=O)C1=C2O; assay: purified protein; settings: 0-40 µM substrate, 504 µM NADPH, 5.04 mM MgCl2, 0.4 µM enzyme, 100 mM TAPS pH 8.5, room temperature

T1 sequence (Z9HWK3IZF4 21-399 limits assumed): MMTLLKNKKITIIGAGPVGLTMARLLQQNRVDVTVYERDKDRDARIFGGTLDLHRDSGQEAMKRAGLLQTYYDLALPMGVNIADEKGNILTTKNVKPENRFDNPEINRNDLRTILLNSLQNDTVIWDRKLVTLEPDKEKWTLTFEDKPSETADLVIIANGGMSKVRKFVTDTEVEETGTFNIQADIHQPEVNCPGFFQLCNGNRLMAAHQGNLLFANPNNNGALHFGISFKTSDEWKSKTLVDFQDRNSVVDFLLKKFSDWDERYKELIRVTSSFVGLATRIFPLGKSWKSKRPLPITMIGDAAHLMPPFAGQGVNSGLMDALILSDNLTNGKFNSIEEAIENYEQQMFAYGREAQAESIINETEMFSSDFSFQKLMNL

How did the “X-ray crystal structure, 2.55 Å” value [1] turn out when `Cc1cc2nc3c(=O)[nH]c(=O)nc-3n(C[C@H](O)[C@H](O)[C@H](O)COP(=O)(O)OP(=O)(O)OC[C@H]3O[C@@H](n4cnc5c(N)ncnc54)[C@H](O)[C@@H]3O)c2cc1C` [FAD] was run?
The value was “The FAD in Tet(X7) retains an IN-conformation”.

How did the IC50 [2] turn out when `Cc1c2c(c(O)c3c(O)cccc13)C(=O)[C@]1(O)C(=O)C(C(N)=O)=C(O)[C@@H](N(C)C)[C@@H]1C2` [anhydrotetracycline] was run?
Its IC50 is 1060 ± 108 nM.

For `CN(C)[C@@H]1C(=O)C(C(N)=O)=C(O)[C@@]2(O)C(=O)c3c(cc4c(Cl)ccc(O)c4c3O)C[C@@H]12` [anhydrodemeclocycline], which IC50 [2] is on record?
The IC50 was 260 ± 40 nM.

What does the source list for Tet(X7) (uncultured bacterium)?
Km [3]: 4 ± 0.4 µM; kcat [3]: 0.0033 ± 0.0001 s⁻¹; Km [4]: 6 ± 1 µM; Km [5]: 4 ± 0.4 µM; kcat [5]: 0.005 ± 0.00017 s⁻¹

Reference: PMC7229144, “Tetracycline-inactivating enzymes from environmental, human commensal, and pathogenic bacteria cause broad-spectrum tetracycline resistance” (Communications Biology, 2020)
